Assay results from patent US20160068605A1.
Read-outs that look alike come from different tables or passages of the source.

Columns and labels:
[1] = target: IL3RA-PK (CD123 tagged with ProLink) in HEK293 IL3RA-PK/CSF2RB-EA cells (UniProt P26951)
[2] = target: IL3RA-PK (CD123 tagged with ProLink) in HEK293 IL3RA-PK/CSF2RB-EA cells (UniProt P26951); remark: listed apart in the source
[3] = target: cell-surface CD3 epsilon on primary human T cells (human) (UniProt P07766); assay: saturation binding by flow cytometry on primary human T cells (Donor 10006)
cell-surface CD3 epsilon on primary human T cells (human), sequence (P07766 23-207): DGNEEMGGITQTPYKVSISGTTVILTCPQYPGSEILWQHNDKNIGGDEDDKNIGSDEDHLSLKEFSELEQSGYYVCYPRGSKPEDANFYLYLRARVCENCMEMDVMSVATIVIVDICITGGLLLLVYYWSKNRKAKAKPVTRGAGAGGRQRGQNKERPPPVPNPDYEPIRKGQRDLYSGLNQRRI

[4] = target: cell-surface CD3 epsilon on primary cynomolgus T cells (cynomolgus monkey) (UniProt Q95LI5); assay: saturation binding by flow cytometry on cynomolgus monkey T cells
cell-surface CD3 epsilon on primary cynomolgus T cells (cynomolgus monkey), sequence (Q95LI5 22-198): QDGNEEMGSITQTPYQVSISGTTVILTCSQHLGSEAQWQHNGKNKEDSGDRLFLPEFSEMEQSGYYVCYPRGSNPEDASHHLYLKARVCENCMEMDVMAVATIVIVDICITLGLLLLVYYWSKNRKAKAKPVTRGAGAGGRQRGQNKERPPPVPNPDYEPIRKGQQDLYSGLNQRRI

EC50 (read off the curve): CD123/CD131 heteromerization (RLU) [1] [ng/mL] | EC50 (read off the curve): CD123/CD131 heteromerization (RLU) [2] [ng/mL] | Ab binding sites/cell [3] [sites/cell] | Kd [3] [nM] | Antigen binding sites/cell [4] [sites/cell] | Kd [4] [nM] | Substance
3 | 6 | – | – | – | – | IL-3 (from UniProt P08700) (ligand)
– | – | 60000 | 4.2 | 55000 | 1.4 | SP34-2 (antibody)
